Consider three molecules from patent publication US20060121462A1, “Receptor and screening methods” (priority 2003, published 2006).

The target of assay [1] is T1, C5L2+Gα16 (Homo sapiens, UniProt Q9P296).
T1 construct: inferred from the sorting antibody; expressed in transfected cells
The format is cell-based. As to conditions: C5L2+Gα16 cells after 10 ng/ml PT, FIG. 4D.

Assay [2] has as its target T2, C3aR (Homo sapiens, UniProt Q16581).
T2 construct: expressed in transfected cells
T2 sequence (Q16581 1-482): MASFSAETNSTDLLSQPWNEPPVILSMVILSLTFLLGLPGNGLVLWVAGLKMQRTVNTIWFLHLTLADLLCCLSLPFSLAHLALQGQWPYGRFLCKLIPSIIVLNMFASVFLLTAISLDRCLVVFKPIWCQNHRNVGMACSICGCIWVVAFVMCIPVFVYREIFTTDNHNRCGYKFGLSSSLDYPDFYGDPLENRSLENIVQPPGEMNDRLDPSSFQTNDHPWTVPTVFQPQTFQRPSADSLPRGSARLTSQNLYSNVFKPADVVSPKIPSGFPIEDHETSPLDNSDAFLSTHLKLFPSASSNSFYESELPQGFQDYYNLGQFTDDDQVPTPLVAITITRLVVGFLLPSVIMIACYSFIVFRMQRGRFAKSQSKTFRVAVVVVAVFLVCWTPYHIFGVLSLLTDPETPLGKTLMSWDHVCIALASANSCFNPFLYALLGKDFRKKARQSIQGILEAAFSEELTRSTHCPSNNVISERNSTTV
As to the kind of experiment: Degranulation of C3aR-transfected RBL cells. The format is cell-based. As to conditions: RBL cells transfected with C3aR; data not shown. The method, then:
Cellular activation was measured as the release of -hexosaminidase from intracellular granules (20). In the enhancement of degranulation assay, cells were treated with 1 μg/ml IgE^DNP (21) overnight, then with chemoattractants or peptides for 10 min prior to stimulation with 100 ng/ml DNP-HSA (Sigma) for 15 minutes. EC50 and standard error values were obtained by iterative curve fitting using GraphPad Prism 2.0.

The target in assay [3] is T2, C3aR. Kind of assay: Radiolabelled ligand competition receptor binding, C3aR-transfected RBL cells. As to conditions: C3aR expressed in RBL cells; competition binding. The text has this:
(§1) C5L2, C3aR and CD88-transfected RBL cells were produced as described (17). G16 was cloned from human monocytes mRNA and authenticated by sequencing. Human G16 and either C5L2 or CD88 were ligated into the bicistronic expression vector pIRES (Qiagen). Stable transfection of RBL-2H3 cells with pIRES constructs was achieved by electroporation (18). Cells underwent three rounds of fluorescence-activated cell sorting using anti-CD88 antibody (clone S5/1; Serotec) or anti-hemagglutinin peptide antibody (Roćhe Molecular Biochemicals, clone 12CA5), selecting the top 5% of receptor-positive cells in each round.
(§2) Competition binding assays were performed using 50 pM ^125I-C5a or ^125I-C3a (NEN) on adherent C5aR-transfected or C5L2-transfected RBL cells in 96-well microtiter plates (55 000/well) at 4° C. as described previously (22). Competition curves were generated by pre-incubating adherent cells with increasing concentrations of unlabelled complement fragments. The IC50, standard error values and linear regression analyses were obtained by using GraphPad Prism 2.0.

For assay [4], the target named is T3, CD88 (Homo sapiens, UniProt P21730).
T3 construct: expressed in transfected cells
T3 sequence (P21730 1-350): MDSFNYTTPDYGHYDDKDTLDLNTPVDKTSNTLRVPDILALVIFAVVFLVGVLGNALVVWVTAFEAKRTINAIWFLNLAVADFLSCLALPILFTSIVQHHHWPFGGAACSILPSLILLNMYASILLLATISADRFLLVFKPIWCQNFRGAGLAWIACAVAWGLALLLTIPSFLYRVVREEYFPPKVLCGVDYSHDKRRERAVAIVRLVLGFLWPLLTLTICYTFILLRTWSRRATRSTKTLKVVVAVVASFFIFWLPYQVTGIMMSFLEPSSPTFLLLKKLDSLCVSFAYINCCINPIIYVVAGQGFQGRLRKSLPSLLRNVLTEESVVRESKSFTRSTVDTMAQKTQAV
Kind of assay: Radiolabelled ligand competition receptor binding, CD88-transfected RBL cells.
Source text: as §1, §2

In assay [5] the target is T3, CD88. Kind of assay: Degranulation of CD88-transfected RBL cells. It counts as cell-based. As to conditions: RBL cells transfected with CD88; data not shown.
The target in assay [6] is T4, C5L2 (Homo sapiens, UniProt Q9P296).
T4 construct: expressed in transfected cells
T4 sequence (Q9P296 whole entry): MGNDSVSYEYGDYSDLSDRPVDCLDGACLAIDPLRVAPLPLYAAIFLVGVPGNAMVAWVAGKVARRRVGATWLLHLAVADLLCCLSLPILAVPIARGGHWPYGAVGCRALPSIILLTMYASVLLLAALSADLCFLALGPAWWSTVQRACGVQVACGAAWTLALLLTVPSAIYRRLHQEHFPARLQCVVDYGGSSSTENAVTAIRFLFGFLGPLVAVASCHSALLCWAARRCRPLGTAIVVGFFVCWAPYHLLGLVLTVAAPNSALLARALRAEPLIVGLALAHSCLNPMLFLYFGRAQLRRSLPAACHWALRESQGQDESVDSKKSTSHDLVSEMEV
Kind of assay: Competition binding with 125I-C5a, C5L2-transfected RBL cells. The method, then:
(§3) FIG. 1 illustrates C3a des-Arg^77 and C4a des-Arg^77 bind to RBL cells expressing C5L2. RBL cells transfected with C5L2 were incubated with the stated concentrations of complement fragments for 10 min prior to the addition of 50 pM ^125I-C3a (A) or 50 pM ^125I-C5a (B). Results are the means of n (n shown in Table 1) separate experiments performed in duplicate±S.E.;
as §1
(§4) Competition binding assays were performed using 50 pM ^125I-C5a or ^125I-C3a (NEN) on adherent C5aR-transfected or C5L2-transfected RBL cells in 96-well microtiter plates (55 000/well) at 4° C. as described previously (22). Competition curves were generated by pre-incubating adherent cells with increasing concentrations of unlabelled complement fragments. […]

Assay [7] deals with T4, C5L2. As to the kind of experiment: Competition binding with 125I-C3a, C5L2-transfected RBL cells. As to conditions: FIG. 1A. The method, then:
as §3, §1, §4

Assay [8] deals with T4, C5L2. As to the kind of experiment: Degranulation (β-hexosaminidase) and enhancement of IgE-receptor-mediated degranulation, C5L2-transfected RBL cells. It counts as cell-based. As to conditions: enhancement of IgE-mediated degranulation, FIG. 3A.

T1 sequence (Q9P296 whole entry): as above

B1: C4a: complement fragment of C4 (protein)
chain: NVNFQKAINEKLGQYASPTAKRCCQDGVTRLPMMRSCEQRAARVQQPDCREPFLSCCQFAESLRKKSRDKGQAGLQR
For B1, the “enhancement of degranulation response to IgE receptor cross-linking” value in assay [1] was “inactive”.

B2: C4a des-Arg^77 (protein)
chain: NVNFQKAINEKLGQYASPTAKRCCQDGVTRLPMMRSCEQRAARVQQPDCREPFLSCCQFAESLRKKSRDKGQAGLQ
notes: desarginated metabolite of complement fragment C4a
Regarding B2, the stimulation of degranulation result in assay [2] and in assay [5] was “neither C3a des-AXg^77 nor C4a des-Arg^77 can stimulate degranulation” each time. For the same molecule, the IC50 in assay [3] stood at 10 µM; in assay [6] (C5L2 (^125I-C5a) expressed in RBL cells, 50 pM radioligand) it was 17 µM. The “competition with ^125I-C5a binding to CD88” value in assay [4] is “cannot compete effectively”. Moreover, the “competition with ^125I-C5a binding to C5L2” value in assay [6] (FIG. 1B) was “cannot compete effectively”. The “competition with ^125I-C3a for C5L2 binding” value in assay [7] is listed as “can compete strongly”.

B3: C5a des-Arg^74 (protein)
chain: TLQKKIEEIAAKYKHSVVKKCCYDGACVNNDETCEQRAARISLGPRCIKAFTECCVVASQLRANISHKDMQLG
modifications: left off: small tags and cut ends
notes: desarginated metabolite of complement fragment C5a
With B3, the agonist character entry in assay [8] is given as “only a partial agonist”.
